T1: SlHY5 (Solanum lycopersicum, UniProt Q9SM50 1-158)
T1 sequence: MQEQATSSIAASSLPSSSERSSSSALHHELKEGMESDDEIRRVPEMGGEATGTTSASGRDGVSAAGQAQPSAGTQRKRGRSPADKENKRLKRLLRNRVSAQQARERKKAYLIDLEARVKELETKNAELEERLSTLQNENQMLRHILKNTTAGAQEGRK

B1: SlLHCA probe (dsDNA)
DNA 1: CAAATTGGTGACAACGTACATTCTGGCA
DNA 2: TGCCAGAATGTACGTTGTCACCAATTTG
B2: SlLHCA-m probe (dsDNA)
DNA 1: CAAATTGGTGACATTTTACATTCTGGCA
DNA 2: TGCCAGAATGTAAAATGTCACCAATTTG
B3: SlLHCB probe (dsDNA)
DNA 1: CTGCTTAGTTGTACGTCTTGTAATCCTC
DNA 2: GAGGATTACAAGACGTACAACTAAGCAG
B4: SlLHCB-m probe (dsDNA)
DNA 1: CTGCTTAGTTGTTTTTCTTGTAATCCTC
DNA 2: GAGGATTACAAGAAAAACAACTAAGCAG
B5: SlCYCB probe (dsDNA)
DNA 1: ACGTGTTTATTTTTTACTTTAAGAACGTG
DNA 2: CACGTTCTTAAAGTAAAAAATAAACACGT
B6: SlCYCB-m probe (dsDNA)
DNA 1: ACGTGTTTATTTTTTACTTTAAGATTTTG
DNA 2: CAAAATCTTAAAGTAAAAAATAAACACGT

target: T1, SlHY5; test: EMSA; LightShift Chemiluminescent EMSA kit (Thermo 20148); buffer, salt, pH and temperature not stated; details: protein: recombinant, tags: His, chain copies: 2, blunt

Binder	binding result
B1	binds
B2	no binding
B3	binds
B4	no binding
B5	binds
B6	no binding
